According to patent US20060259987A1 (UNIVERSITY OF UTAH RESEARCH FOUNDATION, published 2006):

T1: human neutrophil elastase (human, UniProt P08246 30-247, limits assumed)
T1 sequence (looked up): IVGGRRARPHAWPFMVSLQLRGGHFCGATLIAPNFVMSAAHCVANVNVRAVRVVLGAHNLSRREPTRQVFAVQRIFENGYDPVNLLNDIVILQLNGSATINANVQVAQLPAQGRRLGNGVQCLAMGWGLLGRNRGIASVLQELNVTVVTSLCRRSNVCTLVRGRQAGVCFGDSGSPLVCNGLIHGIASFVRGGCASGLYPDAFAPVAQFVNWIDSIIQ

T2: human neutrophil cathepsin G (human, UniProt P08311 21-244)
T2 sequence (looked up): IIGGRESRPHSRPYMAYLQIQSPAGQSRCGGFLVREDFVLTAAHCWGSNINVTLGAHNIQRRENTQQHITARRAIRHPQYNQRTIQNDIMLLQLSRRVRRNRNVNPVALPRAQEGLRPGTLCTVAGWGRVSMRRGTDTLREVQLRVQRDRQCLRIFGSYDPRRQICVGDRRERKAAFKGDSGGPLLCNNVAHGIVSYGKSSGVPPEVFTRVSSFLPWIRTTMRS


What was measured:
Test in all cases: cell-based or functional assay
[1] = target: T1, human neutrophil elastase
[2] = target: human thrombin (human, UniProt P00734 328-622)
[3] = target: human factor Xa (human, UniProt P00742 41-179; P00742 235-488, limits assumed)
[4] = target: T2, human neutrophil cathepsin G

Sequence of human factor Xa (P00742 41-179 limits assumed, chain 1 of 2): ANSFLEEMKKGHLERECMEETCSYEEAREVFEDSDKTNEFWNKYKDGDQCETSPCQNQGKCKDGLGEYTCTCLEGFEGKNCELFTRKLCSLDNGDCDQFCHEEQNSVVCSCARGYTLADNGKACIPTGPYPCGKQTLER
Sequence of human factor Xa (P00742 235-488 limits assumed, chain 2 of 2): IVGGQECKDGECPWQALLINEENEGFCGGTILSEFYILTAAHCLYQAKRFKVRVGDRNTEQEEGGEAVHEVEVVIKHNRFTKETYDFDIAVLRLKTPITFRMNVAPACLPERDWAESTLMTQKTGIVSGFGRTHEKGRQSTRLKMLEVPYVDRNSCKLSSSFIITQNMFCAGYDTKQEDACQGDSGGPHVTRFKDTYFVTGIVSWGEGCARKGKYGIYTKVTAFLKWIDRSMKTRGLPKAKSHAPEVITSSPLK

Row | Binder | rsd IIa, HNE (CA #51, stg 1 conc 200) [1] [%] | rsd Xa, HNE (CA #51, stg 1 conc 200) [1] [%] | IC50 IIa/UFH (HCA #5) [2] [nM] | IC50 IIa/UFH (HCA #6) [2] [nM] | rsd IIa, no add (CA #51, stg 1 conc 200) [2] [%] | IC50 fXa/UFH (HCA #5) [3] [nM] | IC50 fXa/UFH (HCA #6) [3] [nM] | rsd Xa, no add (CA #51, stg 1 conc 200) [3] [%] | rsd IIa, catG (CA #51, stg 1 conc 200) [4] [%] | rsd Xa, catG (CA #51, stg 1 conc 200) [4] [%] | rsd IIa, HNE (CA #52, stg 1 conc 200) [1] [%] | rsd Xa, HNE (CA #52, stg 1 conc 200) [1] [%] | rsd IIa, no add (CA #52, stg 1 conc 200) [2] [%] | rsd Xa, no add (CA #52, stg 1 conc 200) [3] [%] | rsd IIa, catG (CA #52, stg 1 conc 200) [4] [%] | rsd Xa, catG (CA #52, stg 1 conc 200) [4] [%]
1 | LEAQ.501 (other) SPVDICTAKPRDIPMNPMCIYRSPEKKATEDEGSEQKIPEATNRRVWELSKANSRFATTFYQHLADSKNDNDNIFLSPLSISTAFAMTKLGACNDTLQQLMEVFKFDTISEKTSDQIHFFFAKLNCRLYRKANKASKLVSANRLFGDKSLTFNETYQDISELVYGAKLQPLDFKENAEQSRAAINKWVSNKTEGRITDVIPSEAINELTVLVLVNTIYFKGLWKSKFSPENTRKELFYKADGESCSASMMYQEGKFRYRRVAEGTQVLELPFKGDDITMVLILPKPEKSLAKVEKELTPEVLQEWLDELEEMMLVVHMPRFRIEDGFSLKEQLQDMGLVDLFSPEKSKLPGIVAEGRDDLYVSDAFHKAFLEVNEEGSEAAASTALDAQGRSLNPNRVTFKANRPFLVFIREVPLNTIIFMGRVANPCVK | 3 | 1 | 150 | 140 | 2 | 15 | 19 | 1 | 3 | -2 | – | – | – | – | – | –
2 | LEAQ.516 (other) SPVDICTAKPRDIPMNPMCIYRSPEKKATEDEGSEQKIPEATNRRVWELSKANSRFATTFYQHLADSKNDNDNIFLSPLSISTAFAMTKLGACNDTLQQLMEVFKFDTISEKTSDQIHFFFAKLNCRLYRKANKASKLVSANRLFGDKSLTFNETYQDISELVYGAKLQPLDFKENAEQSRAAINKWVSNKTEGRITDVIPSEAINELTVLVLVNTIYFKGLWKSKFSPENTRKELFYKADGESCSASMMYQEGKFRYRRVAEGTQVLELPFKGDDITMVLILPKPEKSLAKVEKELTPEVLQEWLDELEEMMLVVHMPRFRIEDGFSLKEQLQDMGLVDLFSPEKSKLPGIVAEGRDDLYVSDAFHKAFLEVNEEGSEAAASTFLEAQGRSLNPNRVTFKANRPFLVFIREVPLNTIIFMGRVANPCVK | – | – | – | 120 | – | – | 25 | – | – | – | 9 | 3 | 4 | 3 | 5 | 1
3 | LEAQ.515 (other) SPVDICTAKPRDIPMNPMCIYRSPEKKATEDEGSEQKIPEATNRRVWELSKANSRFATTFYQHLADSKNDNDNIFLSPLSISTAFAMTKLGACNDTLQQLMEVFKFDTISEKTSDQIHFFFAKLNCRLYRKANKASKLVSANRLFGDKSLTFNETYQDISELVYGAKLQPLDFKENAEQSRAAINKWVSNKTEGRITDVIPSEAINELTVLVLVNTIYFKGLWKSKFSPENTRKELFYKADGESCSASMMYQEGKFRYRRVAEGTQVLELPFKGDDITMVLILPKPEKSLAKVEKELTPEVLQEWLDELEEMMLVVHMPRFRIEDGFSLKEQLQDMGLVDLFSPEKSKLPGIVAEGRDDLYVSDAFHKAFLEVNEEGSEAAASTLLEAQGRSLNPNRVTFKANRPFLVFIREVPLNTIIFMGRVANPCVK | – | – | – | 110 | – | – | 18 | – | – | – | 3 | 2 | 5 | 2 | 3 | 1
4 | LEAQ.509 (other) SPVDICTAKPRDIPMNPMCIYRSPEKKATEDEGSEQKIPEATNRRVWELSKANSRFATTFYQHLADSKNDNDNIFLSPLSISTAFAMTKLGACNDTLQQLMEVFKFDTISEKTSDQIHFFFAKLNCRLYRKANKASKLVSANRLFGDKSLTFNETYQDISELVYGAKLQPLDFKENAEQSRAAINKWVSNKTEGRITDVIPSEAINELTVLVLVNTIYFKGLWKSKFSPENTRKELFYKADGESCSASMMYQEGKFRYRRVAEGTQVLELPFKGDDITMVLILPKPEKSLAKVEKELTPEVLQEWLDELEEMMLVVHMPRFRIEDGFSLKEQLQDMGLVDLFSPEKSKLPGIVAEGRDDLYVSDAFHKAFLEVNEEGSEAAASTALVAQGRSLNPNRVTFKANRPFLVFIREVPLNTIIFMGRVANPCVK | 1 | -3 | 16 | 18 | 1 | 16 | 20 | -1 | 0 | -1 | 52 | 10 | 1 | 3 | 6 | 1
5 | LEAQ.505 (other) SPVDICTAKPRDIPMNPMCIYRSPEKKATEDEGSEQKIPEATNRRVWELSKANSRFATTFYQHLADSKNDNDNIFLSPLSISTAFAMTKLGACNDTLQQLMEVFKFDTISEKTSDQIHFFFAKLNCRLYRKANKASKLVSANRLFGDKSLTFNETYQDISELVYGAKLQPLDFKENAEQSRAAINKWVSNKTEGRITDVIPSEAINELTVLVLVNTIYFKGLWKSKFSPENTRKELFYKADGESCSASMMYQEGKFRYRRVAEGTQVLELPFKGDDITMVLILPKPEKSLAKVEKELTPEVLQEWLDELEEMMLVVHMPRFRIEDGFSLKEQLQDMGLVDLFSPEKSKLPGIVAEGRDDLYVSDAFHKAFLEVNEEGSEAAASTALQAQGRSLNPNRVTFKANRPFLVFIREVPLNTIIFMGRVANPCVK | 0 | 1 | 18 | – | 0 | 16 | – | 1 | 0 | -2 | – | – | – | – | – | –
6 | LEAQ.507 (other) SPVDICTAKPRDIPMNPMCIYRSPEKKATEDEGSEQKIPEATNRRVWELSKANSRFATTFYQHLADSKNDNDNIFLSPLSISTAFAMTKLGACNDTLQQLMEVFKFDTISEKTSDQIHFFFAKLNCRLYRKANKASKLVSANRLFGDKSLTFNETYQDISELVYGAKLQPLDFKENAEQSRAAINKWVSNKTEGRITDVIPSEAINELTVLVLVNTIYFKGLWKSKFSPENTRKELFYKADGESCSASMMYQEGKFRYRRVAEGTQVLELPFKGDDITMVLILPKPEKSLAKVEKELTPEVLQEWLDELEEMMLVVHMPRFRIEDGFSLKEQLQDMGLVDLFSPEKSKLPGIVAEGRDDLYVSDAFHKAFLEVNEEGSEAAASTALRAQGRSLNPNRVTFKANRPFLVFIREVPLNTIIFMGRVANPCVK | 2 | -3 | 55 | – | 1 | 55 | – | -2 | 2 | -2 | – | – | – | – | – | –
7 | LEAQ.517 (other) SPVDICTAKPRDIPMNPMCIYRSPEKKATEDEGSEQKIPEATNRRVWELSKANSRFATTFYQHLADSKNDNDNIFLSPLSISTAFAMTKLGACNDTLQQLMEVFKFDTISEKTSDQIHFFFAKLNCRLYRKANKASKLVSANRLFGDKSLTFNETYQDISELVYGAKLQPLDFKENAEQSRAAINKWVSNKTEGRITDVIPSEAINELTVLVLVNTIYFKGLWKSKFSPENTRKELFYKADGESCSASMMYQEGKFRYRRVAEGTQVLELPFKGDDITMVLILPKPEKSLAKVEKELTPEVLQEWLDELEEMMLVVHMPRFRIEDGFSLKEQLQDMGLVDLFSPEKSKLPGIVAEGRDDLYVSDAFHKAFLEVNEEGSEAAASTSLEAQGRSLNPNRVTFKANRPFLVFIREVPLNTIIFMGRVANPCVK | – | – | – | 65 | – | – | 27 | – | – | – | 3 | 2 | 4 | 2 | 2 | 1
